Experimental data as given in PMC9062740.

Target: taxol-stabilized microtubules polymerized from porcine brain tubulin (UniProt P02550)
Experiment: MT-binding assay (cosedimentation)
Conditions: 5 μM CG2 mutant, […] taxol–MTs; parent: est. 1.0; read off a plot

Sequence of CLIP-170 CG2 fragment (206-288), P30622 H276A (P30622 206-288 H276A): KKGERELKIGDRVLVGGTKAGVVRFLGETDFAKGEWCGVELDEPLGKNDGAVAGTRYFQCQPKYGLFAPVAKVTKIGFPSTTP
Sequence of taxol-stabilized microtubules polymerized from porcine brain tubulin (P02550 whole entry, chain 1 of 2): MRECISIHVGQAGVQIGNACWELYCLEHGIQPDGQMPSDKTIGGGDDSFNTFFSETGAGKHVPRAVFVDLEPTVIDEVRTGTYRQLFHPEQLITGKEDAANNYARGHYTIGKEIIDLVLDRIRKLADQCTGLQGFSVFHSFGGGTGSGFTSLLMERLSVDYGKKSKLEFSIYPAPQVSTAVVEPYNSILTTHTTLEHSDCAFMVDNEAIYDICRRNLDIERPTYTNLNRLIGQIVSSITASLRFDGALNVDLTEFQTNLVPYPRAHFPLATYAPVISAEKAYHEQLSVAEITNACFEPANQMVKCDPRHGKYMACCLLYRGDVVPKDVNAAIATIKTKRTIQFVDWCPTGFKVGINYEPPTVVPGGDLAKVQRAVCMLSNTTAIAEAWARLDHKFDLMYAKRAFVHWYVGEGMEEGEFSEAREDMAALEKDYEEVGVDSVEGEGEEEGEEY
Sequence of taxol-stabilized microtubules polymerized from porcine brain tubulin (chain, as listed by the source, chain 2 of 2): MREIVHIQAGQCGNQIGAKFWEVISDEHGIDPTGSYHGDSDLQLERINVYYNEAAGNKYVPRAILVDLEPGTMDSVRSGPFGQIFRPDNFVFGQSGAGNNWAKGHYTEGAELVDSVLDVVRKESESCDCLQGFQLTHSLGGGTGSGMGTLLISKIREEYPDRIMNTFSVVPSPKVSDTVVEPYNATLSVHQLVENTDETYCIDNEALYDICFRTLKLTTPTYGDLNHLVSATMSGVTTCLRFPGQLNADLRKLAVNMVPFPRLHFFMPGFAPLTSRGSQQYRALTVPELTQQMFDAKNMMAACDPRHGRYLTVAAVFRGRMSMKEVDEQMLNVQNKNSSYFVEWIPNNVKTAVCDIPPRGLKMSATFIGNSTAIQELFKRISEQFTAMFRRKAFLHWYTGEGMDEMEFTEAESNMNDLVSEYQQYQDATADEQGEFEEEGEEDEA

ratio to parent: 0.91
Substance: CLIP-170 CG2 fragment (206-288), P30622 H276A
